T1: GRIP1_3, Q9Y3R0
T1 sequence (Q9Y3R0 247-346, limits assumed, looked up): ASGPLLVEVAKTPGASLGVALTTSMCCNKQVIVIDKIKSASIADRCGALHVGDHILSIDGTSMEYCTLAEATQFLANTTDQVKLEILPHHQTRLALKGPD

T2: RADIL, Q96JH8
T2 sequence (Q96JH8 971-1071, limits assumed, looked up): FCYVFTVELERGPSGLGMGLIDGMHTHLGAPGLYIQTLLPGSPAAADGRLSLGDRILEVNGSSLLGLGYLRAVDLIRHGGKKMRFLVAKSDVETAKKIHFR

T3: LIN7A, O14910
T3 sequence (O14910 103-200, limits assumed, looked up): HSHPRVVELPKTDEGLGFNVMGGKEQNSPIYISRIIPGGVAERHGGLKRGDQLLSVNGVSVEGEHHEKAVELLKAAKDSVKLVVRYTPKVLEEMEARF

T4: PDZRN3_1, Q9UPQ7
T4 sequence (Q9UPQ7 244-349, limits assumed, looked up): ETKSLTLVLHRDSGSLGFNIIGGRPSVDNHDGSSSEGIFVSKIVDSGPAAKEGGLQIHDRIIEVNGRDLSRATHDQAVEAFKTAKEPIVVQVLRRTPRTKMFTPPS

T5: GRIP1_2, Q9Y3R0
T5 sequence (Q9Y3R0 145-248, limits assumed, looked up): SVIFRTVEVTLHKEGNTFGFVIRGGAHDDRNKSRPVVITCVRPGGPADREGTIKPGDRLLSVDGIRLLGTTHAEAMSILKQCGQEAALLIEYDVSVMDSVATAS

T6: TJP3_3, O95049
T6 sequence (O95049 375-456, limits assumed, looked up): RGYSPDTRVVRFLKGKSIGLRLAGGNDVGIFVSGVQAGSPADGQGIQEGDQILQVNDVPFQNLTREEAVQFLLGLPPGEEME

T7: RHPN1, Q8TCX5
T7 sequence (Q8TCX5 508-602, limits assumed, looked up): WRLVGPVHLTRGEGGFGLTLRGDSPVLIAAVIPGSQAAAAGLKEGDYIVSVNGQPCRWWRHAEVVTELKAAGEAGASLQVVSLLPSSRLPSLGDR

T8: GRIP1_5, Q9Y3R0
T8 sequence (Q9Y3R0 568-668, limits assumed, looked up): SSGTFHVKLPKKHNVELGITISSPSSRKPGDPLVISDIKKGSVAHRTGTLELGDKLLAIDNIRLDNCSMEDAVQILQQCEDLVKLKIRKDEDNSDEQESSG

T9: FRMPD1, Q5SYB0
T9 sequence (Q5SYB0 52-145, limits assumed, looked up): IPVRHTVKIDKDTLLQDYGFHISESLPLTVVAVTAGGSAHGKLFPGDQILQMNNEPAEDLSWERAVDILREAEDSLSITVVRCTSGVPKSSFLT

T10: RAPGEF6, Q8TEU7
T10 sequence (Q8TEU7 525-625, limits assumed, looked up): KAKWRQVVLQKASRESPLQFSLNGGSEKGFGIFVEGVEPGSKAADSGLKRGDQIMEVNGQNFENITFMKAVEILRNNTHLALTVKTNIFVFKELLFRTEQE

B1: TYRP1, P17643 (peptide)
chain: KLQNPNQSVV
B2: CLDN7, O95471 (peptide)
chain: PKSNSSKEYV
B3: PRKN, O60260 (peptide)
chain: VCMGDHWFDV
B4: CCL24, O00175 (peptide)
chain: QRYPGNQTTC

What was measured:
Assay in all cases: holdup assay
Set-up in all cases: key: below the threshold = too weak to quantify, mostly under pKd 3.1 to 4
Details in all cases: plain residues with an end cap or a label only (N-terminal biotin on a linker: ado-ado)
PDLIM1, O00151 = target: PDLIM1, O00151
GRIP1_3, Q9Y3R0 = target: T1, GRIP1_3, Q9Y3R0
DLG1_1, Q12959 = target: DLG1_1, Q12959
RADIL, Q96JH8 = target: T2, RADIL, Q96JH8
DLG4_3, P78352 = target: DLG4_3, P78352
TJP2_1, Q9UDY2 = target: TJP2_1, Q9UDY2
LIN7A, O14910 = target: T3, LIN7A, O14910
PDZRN3_1, Q9UPQ7 = target: T4, PDZRN3_1, Q9UPQ7
SCRIB_1, Q14160 = target: SCRIB_1, Q14160
MAGI1_1, Q96QZ7 = target: MAGI1_1, Q96QZ7
GRIP1_2, Q9Y3R0 = target: T5, GRIP1_2, Q9Y3R0
LNX1_3, Q8TBB1 = target: LNX1_3, Q8TBB1
NHERF4_2, Q86UT5 = target: NHERF4_2, Q86UT5
TJP3_3, O95049 = target: T6, TJP3_3, O95049
GORASP1, Q9BQQ3 = target: GORASP1, Q9BQQ3
DLG5_1, Q8TDM6 = target: DLG5_1, Q8TDM6
RHPN1, Q8TCX5 = target: T7, RHPN1, Q8TCX5
GRIP1_5, Q9Y3R0 = target: T8, GRIP1_5, Q9Y3R0
LNX1_1, Q8TBB1 = target: LNX1_1, Q8TBB1
HTRA1, Q92743 = target: HTRA1, Q92743
NHERF4_4, Q86UT5 = target: NHERF4_4, Q86UT5
Inadl_10, Q8NI35 = target: Inadl_10, Q8NI35
PDZRN4_1, Q6ZMN7 = target: PDZRN4_1, Q6ZMN7
GOPC, Q9HD26 = target: GOPC, Q9HD26
GORASP2, Q9H8Y8 = target: GORASP2, Q9H8Y8
MAST2, Q6P0Q8 = target: MAST2, Q6P0Q8
FRMPD1, Q5SYB0 = target: T9, FRMPD1, Q5SYB0
RAPGEF6, Q8TEU7 = target: T10, RAPGEF6, Q8TEU7

DLG5_1, Q8TDM6, sequence (Q8TDM6 617-713): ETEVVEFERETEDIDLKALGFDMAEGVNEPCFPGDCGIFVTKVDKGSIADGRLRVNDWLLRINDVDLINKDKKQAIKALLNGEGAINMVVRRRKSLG
TJP2_1, Q9UDY2, sequence (Q9UDY2 24-128): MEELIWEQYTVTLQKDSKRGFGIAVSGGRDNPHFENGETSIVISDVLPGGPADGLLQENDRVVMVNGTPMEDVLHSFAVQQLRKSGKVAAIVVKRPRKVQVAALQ
DLG4_3, P78352, sequence (P78352 306-403): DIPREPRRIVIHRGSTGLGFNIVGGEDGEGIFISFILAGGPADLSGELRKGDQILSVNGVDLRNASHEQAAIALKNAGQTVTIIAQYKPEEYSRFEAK
GORASP1, Q9BQQ3, sequence (Q9BQQ3 1-208): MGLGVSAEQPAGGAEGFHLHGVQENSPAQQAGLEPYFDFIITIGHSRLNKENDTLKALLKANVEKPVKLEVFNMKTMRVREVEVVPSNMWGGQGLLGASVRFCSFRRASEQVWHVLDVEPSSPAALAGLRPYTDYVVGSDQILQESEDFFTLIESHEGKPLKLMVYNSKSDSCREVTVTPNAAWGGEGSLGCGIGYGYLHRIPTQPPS
PDZRN4_1, Q6ZMN7, sequence (Q6ZMN7 213-318): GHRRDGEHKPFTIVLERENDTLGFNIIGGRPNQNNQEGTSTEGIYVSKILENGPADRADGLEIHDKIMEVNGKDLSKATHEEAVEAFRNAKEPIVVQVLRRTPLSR
PDLIM1, O00151, sequence (O00151 1-87): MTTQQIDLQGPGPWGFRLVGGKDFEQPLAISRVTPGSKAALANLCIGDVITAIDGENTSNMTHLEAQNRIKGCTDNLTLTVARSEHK
HTRA1, Q92743, sequence (Q92743 360-477): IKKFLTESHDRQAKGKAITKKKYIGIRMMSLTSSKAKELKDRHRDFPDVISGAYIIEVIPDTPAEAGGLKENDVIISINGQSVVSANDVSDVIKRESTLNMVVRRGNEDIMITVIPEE
LNX1_3, Q8TBB1, sequence (Q8TBB1 500-596): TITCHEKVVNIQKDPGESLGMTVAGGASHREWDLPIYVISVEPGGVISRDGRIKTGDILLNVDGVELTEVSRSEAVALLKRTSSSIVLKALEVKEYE
NHERF4_4, Q86UT5, sequence (Q86UT5 464-550): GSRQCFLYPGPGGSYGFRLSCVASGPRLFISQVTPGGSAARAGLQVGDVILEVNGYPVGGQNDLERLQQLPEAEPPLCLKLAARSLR
LNX1_1, Q8TBB1, sequence (Q8TBB1 261-371): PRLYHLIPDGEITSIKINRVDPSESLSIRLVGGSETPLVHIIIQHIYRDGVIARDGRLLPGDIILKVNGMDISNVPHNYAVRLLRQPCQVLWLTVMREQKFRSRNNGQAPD
Inadl_10, Q8NI35, sequence (Q8NI35 1673-1763): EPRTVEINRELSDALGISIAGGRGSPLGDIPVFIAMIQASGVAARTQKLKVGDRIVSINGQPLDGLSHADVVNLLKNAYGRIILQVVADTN
MAGI1_1, Q96QZ7, sequence (Q96QZ7 1-106): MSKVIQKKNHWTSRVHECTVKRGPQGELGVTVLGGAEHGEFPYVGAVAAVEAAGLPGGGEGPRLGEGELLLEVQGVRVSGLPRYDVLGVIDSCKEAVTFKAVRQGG
MAST2, Q6P0Q8, sequence (Q6P0Q8 1099-1202): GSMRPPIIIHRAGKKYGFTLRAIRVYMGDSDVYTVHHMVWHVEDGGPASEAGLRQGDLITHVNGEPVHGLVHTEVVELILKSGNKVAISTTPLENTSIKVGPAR
NHERF4_2, Q86UT5, sequence (Q86UT5 220-308): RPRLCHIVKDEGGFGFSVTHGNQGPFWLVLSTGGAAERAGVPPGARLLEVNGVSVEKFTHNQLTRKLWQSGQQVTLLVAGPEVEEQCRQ
SCRIB_1, Q14160, sequence (Q14160 718-814): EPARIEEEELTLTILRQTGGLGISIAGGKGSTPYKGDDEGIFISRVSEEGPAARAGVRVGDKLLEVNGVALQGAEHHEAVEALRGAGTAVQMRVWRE

pKd (PDLIM1, O00151)	pKd (GRIP1_3, Q9Y3R0)	pKd (DLG1_1, Q12959)	pKd (RADIL, Q96JH8)	pKd (DLG4_3, P78352)	pKd (TJP2_1, Q9UDY2)	pKd (LIN7A, O14910)	pKd (PDZRN3_1, Q9UPQ7)	pKd (SCRIB_1, Q14160)	pKd (MAGI1_1, Q96QZ7)	pKd (GRIP1_2, Q9Y3R0)	pKd (LNX1_3, Q8TBB1)	pKd (NHERF4_2, Q86UT5)	pKd (TJP3_3, O95049)	pKd (GORASP1, Q9BQQ3)	pKd (DLG5_1, Q8TDM6)	pKd (RHPN1, Q8TCX5)	pKd (GRIP1_5, Q9Y3R0)	pKd (LNX1_1, Q8TBB1)	pKd (HTRA1, Q92743)	further results	Binder
below the threshold	below the threshold	3.83	4.05	below the threshold	below the threshold	below the threshold	below the threshold	3.52	below the threshold	below the threshold	below the threshold	below the threshold	below the threshold	3.53	below the threshold	3.77	below the threshold	3.86	4.11	pKd (NHERF4_4, Q86UT5): below the threshold; pKd (Inadl_10, Q8NI35): below the threshold; pKd (PDZRN4_1, Q6ZMN7): below the threshold; pKd (GOPC, Q9HD26): 3.72; pKd (GORASP2, Q9H8Y8): 3.73; pKd (MAST2, Q6P0Q8): 4.7; pKd (FRMPD1, Q5SYB0): below the threshold; pKd (RAPGEF6, Q8TEU7): below the threshold	B1
below the threshold	below the threshold	below the threshold	4.07	below the threshold	4.28	below the threshold	below the threshold	below the threshold	below the threshold	below the threshold	below the threshold	below the threshold	below the threshold	below the threshold	below the threshold	below the threshold	below the threshold	below the threshold	3.72	pKd (NHERF4_4, Q86UT5): below the threshold; pKd (Inadl_10, Q8NI35): below the threshold; pKd (PDZRN4_1, Q6ZMN7): below the threshold; pKd (GOPC, Q9HD26): 3.7; pKd (GORASP2, Q9H8Y8): 3.6; pKd (MAST2, Q6P0Q8): 3.65; pKd (FRMPD1, Q5SYB0): below the threshold; pKd (RAPGEF6, Q8TEU7): below the threshold	B2
3.83	below the threshold	below the threshold	4.44	below the threshold	below the threshold	below the threshold	below the threshold	3.55	below the threshold	below the threshold	4.07	below the threshold	4.57	4.06	below the threshold	below the threshold	below the threshold	3.94	4.96	pKd (NHERF4_4, Q86UT5): 4.3; pKd (Inadl_10, Q8NI35): below the threshold; pKd (PDZRN4_1, Q6ZMN7): below the threshold; pKd (GOPC, Q9HD26): below the threshold; pKd (GORASP2, Q9H8Y8): 4.77; pKd (MAST2, Q6P0Q8): 4.85; pKd (FRMPD1, Q5SYB0): below the threshold; pKd (RAPGEF6, Q8TEU7): below the threshold	B3
below the threshold	below the threshold	3.71	below the threshold	below the threshold	below the threshold	below the threshold	below the threshold	3.92	below the threshold	below the threshold	below the threshold	below the threshold	below the threshold	below the threshold	below the threshold	4.2	below the threshold	3.78	3.66	pKd (NHERF4_4, Q86UT5): below the threshold; pKd (Inadl_10, Q8NI35): below the threshold; pKd (PDZRN4_1, Q6ZMN7): below the threshold; pKd (GOPC, Q9HD26): below the threshold; pKd (GORASP2, Q9H8Y8): below the threshold; pKd (MAST2, Q6P0Q8): 4.74; pKd (FRMPD1, Q5SYB0): below the threshold; pKd (RAPGEF6, Q8TEU7): 3.58	B4

From paper PMC9482650, “Quantitative fragmentomics allow affinity mapping of interactomes” (Nature Communications, 2022)
